Assay [1] addresses CopNΔ84 (C. pneumoniae AR39). In words: SEC; Superdex 200 10/300 GL, 10 mM Tris-HCl pH 7.5, 150 mM NaCl, 0.5 mL/min, 4°C; equivalent molar concentrations, incubated 15 minutes; molecular weight from BioRad gel-filtration standards.
The target of assay [2] is Scc3 (C. pneumoniae AR39). Description: ITC.
Assay [3] deals with Scc3-CopNΔ84 complex (C. pneumoniae AR39). In words: ITC.

On to Scc3 (natural protein), for which, in assay [1], the stoichiometry N was determined as 1.

Regarding “synthetic peptide (CopB residues 163–173)”, the Kd in assay [2] worked out at 79 µM; in assay [3], 49 µM.

The values above are taken from article PMC4222845.
